Measured values: patent publication US20150010591A1 (UNIVERSITY OF BRITISH COLUMBIA, published 2015)

Assays:
Assay in all cases: peptide eluted from immunoaffinity-purified MHC class II of infected C57BL/6 BM-DCs, LC-MS/MS
[1] = biological target: T1, …, peptide of C. trachomatis Sigma Regulatory factor (CT424) (Chlamydia trachomatis)
T1 construct: also called RsbV peptide

[2] = biological target: T2, […], peptide of C. trachomatis Predicted D-Amino Acid Dehydrogenase (CT375) (Chlamydia trachomatis)
T2 construct: also called CT375 peptide

[3] = biological target: T3, …, peptide of C. trachomatis Hypothetical protein CT837 (Chlamydia trachomatis)
T3 construct: also called CT837 peptide

[4] = biological target: T4, …, peptide of C. trachomatis Hypothetical protein CT144 (Chlamydia trachomatis)
T4 construct: also called CT144 peptide

[5] = biological target: T5, …, peptide of C. trachomatis Hypothetical protein CT289 (Chlamydia trachomatis)
T5 construct: also called CT289 peptide

[6] = biological target: T6, …, peptide of C. trachomatis Dihydrolipoamide acetyltransferase (CT247) (Chlamydia trachomatis)
T6 construct: also called PdhC peptide

[7] = biological target: T7, IPFAKPDANLSAED, peptide of C. trachomatis Hypothetical protein CT619 (Chlamydia trachomatis)
T7 construct: also called CT619 peptide

[8] = biological target: T8, …, peptide of C. trachomatis FHA domain; homology to adenylate cyclase (CT664) (Chlamydia trachomatis)
T8 construct: also called CT664 peptide

[9] = biological target: T9, …, peptide of C. trachomatis Muramidase (invasin repeat family) (CT759) (Chlamydia trachomatis)
T9 construct: also called NlpD peptide

[10] = biological target: T10, …, peptide of C. trachomatis Hypothetical protein CT143 (Chlamydia trachomatis)
T10 construct: also called CT143 peptide

[11] = biological target: T11, …, peptide of C. trachomatis CHLPN 76kDa Homolog (CT622) (Chlamydia trachomatis)
T11 construct: also called CT622 peptide

[12] = biological target: T12, …, peptide of C. trachomatis Hypothetical protein CT472 (Chlamydia trachomatis)
T12 construct: also called CT472 peptide

Measured: binding result

B1: MHC class II (I-Ab) molecules of bone marrow derived dendritic cells from C57BL/6 mice (receptor)
MHC II alpha: EDDIEADHVGTYGISVYQSPGDIGQYTFEFDGDELFYVDLDKKETVWMLPEFGQLASFDPQGGLQNIAVVKHNLGVLTKRSNSTPATNEAPQATVFPKSPVLLGQPNTLICFVDNIFPPVINITWLRNSKSVADGVYETSFFVNRDYSFHKLSYLTFIPSDDDIYDCKVEHWGLEEPVLKHWEPEIPAPMSELTETVVCALGLSVGLVGIVVGTIFIIQGLRSGGTSRHPGPL
MHC II beta: GDSERHFVYQFMGECYFTNGTQRIRYVTRYIYNREEYVRYDSDVGEHRAVTELGRPDAEYWNSQPEILERTRAELDTVCRHNYEGPETHTSLRRLEQPNVVISLSRTEALNHHNTLVCSVTDFYPAKIKVRWFRNGQEETVGVSSTQLIRNGDWTFQVLVMLEMTPRRGEVYTCHVEHPSLKSPITVEWRAQSESAWSKMLSGIGGCVLGVIFLGLGLFIRHRSQKGPRGPPPAGLLQ
notes: whole, on cells; also called MHC class II molecules
binds: all assays above
